According to the nanobody polyreactivity screen of Harvey et al. (2022):

Assay: yeast display, Sf9 membrane polyspecificity reagent, FACS + sequencing; frameworks hold sequencing errors
Summary of the method: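 Nanobodies from a synthetic yeast display library (Saccharomyces cerevisiae BJ5465), induced 36–48 hours with galactose, were stained 1 hour at 4 °C with 10% biotinylated, detergent-solubilized Sf9 membrane reagent, enriched on streptavidin microbeads, then FACS-sorted. Anti-HA (expression) and streptavidin (reagent binding) fluorescence set low and high (top ~1%) gates. Polyreactivity labels come from the gate of origin. Genes were colony-PCR amplified, MiSeq 2 × 250 sequenced and filtered by CDR length.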

Q: Which “polyreactivity (PSR sort gate)” value does the source give for “QVQLVESGGGLVQAGGSLRLSCAACGGTFGNYAMGWYRQAPGKDRELVAAISTRGGSTYYADSVKGRFTISRDNAKNTVYLQMNSLKPEDTAVYYCNARIKRPRGVYGGDYWGQGTQVTVSS” here?
A: high polyreactivity

Q: Which “polyreactivity (PSR sort gate)” value does the source give for “QVQLVESGGGLVQAGGSLRLSCAASGSTFSEYAMGWYRQAPGKERELVAAISETGGRTYYADSVKGRFTISRDNAKNTVYLQMNSLKPEDTAVYYCAVDHLTRSGDGEYWGQGTQVTVSS” here?
A: high polyreactivity

Q: Which “polyreactivity (PSR sort gate)” value does the source give for “QDQLVESRGVLVQAGGSLRLTCAASGRTFYLNAMGWNRQATGKEREFVAAITWSSGSTYYADSVKGRFTISRDNAMNTVYLQMNSLKPEDTAVYYCAAAGRWSAYMYSWGQGTQVTVSS” here?
A: high polyreactivity

Q: With “QVQLVESGGGLVQAGGSLRLSCAASGSILTINAMGWYRQAPGKERELVARITISSGSTYYADSVKGRFTISRDNAKNTVYLQMNSLKPEDTAVYYCATDGRSNYYWGDYWGQGTQVTVSS” as the sequence, how does the “polyreactivity (PSR sort gate)” value read?
A: low polyreactivity

Q: For “QVQLVESGGGLVQAGGSLRLSCAASGRIFSYYDMGWYRQAPGKERELVAAITWGGGSTYYADSLKGRFTISRDNAKNTVYLHMNSLKPEDNAVFYSAADWSPSIWEYDYWGQGTEVTVSS”, which “polyreactivity (PSR sort gate)” value is on record?
A: low polyreactivity

Q: For “QVQLVESGGGLVQAGGSLRLSCAASGNTFYYYAMGWYRQAPGKERELVASITWRGGDTYYADSVKGRFTISRDNAKNTVYLQMNSQKPEDTAVFYFAKPRLGRYDSMSYLGDYAGYVYWGQGTQVTLSS”, which “polyreactivity (PSR sort gate)” value is on record?
A: low polyreactivity

Q: With “PDQLVESGGGLVQAGGSLRLSCAASGFIFTYYAMGWYRQAPGKERELVAAITRRGGSTYYADSVKGRFTISRDNAKNTVYLQMNRLKPEDTAVYYCNKVDQGRYGYWGQGTQVTVSS” as the sequence, how does the “polyreactivity (PSR sort gate)” value read?
A: high polyreactivity

Q: With “QVQHVESGGGIVQAGGSLRISCSASGRTLGYYAMGLYRQAPGKETEMVAASSRSGGSTYYADSVQGRFTNSRDNAKNTVYVEMQSLNPEDTAVYDCAATYGPSRYRYDYWGQGTQVTVSS” as the sequence, how does the “polyreactivity (PSR sort gate)” value read?
A: high polyreactivity

Q: For “QVQLVESGAGLVQAGGSLRLSCAASGFTFPYYAMGWYRQAPGKERELVAAINYSGSSTDYADSVKGRFTISRDNAKNTVYLQMNSLKPEDTAVYYCAATPAYYYQAVTEDDYWGQGTHVTVSS”, which “polyreactivity (PSR sort gate)” value is on record?
A: high polyreactivity

Q: For “QVQLVESGGGLVQAGGSLRLSCAASGSILNNYAMGWYRQAPGKERELVAAISSSGGTNYADSVKGRFKISRDNAKNTVYLQMNSLKPEDTAVYYCAKESLYQYDYWGQGTQVTVSS”, which “polyreactivity (PSR sort gate)” value is on record?
A: low polyreactivity

Q: For “QVQLVESGGGKVQAGGSLRLICAASGSTFSSYAMGWYRQAPGKERELVAGISRGGSSTDYADSVKGRFTISRDNAKNTVYLQMNSLKPEDPAVYYCNAKVWWSFNGLEYDYWGQGTQVTVSS”, which “polyreactivity (PSR sort gate)” value is on record?
A: low polyreactivity

Q: With “QVQLVESGGGLVQAGGSLRLSCPASGRIFGYNSMGWYRQAPGKEREMVATMSSGGGSNYADSVKGRFTISRDNAKNTVYLQMKSLKPEDTAVFYCAADLFLDGSSLYAPNWWPDGWNTYRVLGGYWGQGTQVTVSS” as the sequence, how does the “polyreactivity (PSR sort gate)” value read?
A: low polyreactivity

Q: With “QVQLVESGGGLVQAGGSLRLSCAASGSIFYFNGLGWSRQSPGKEREFVAAITWGDGSTYYADSVKGRFTISRDNAKNTVYLQMNSLKPADTAVYYCAAVLLIFKYVPRYDYWGQGSQVTVSS” as the sequence, how does the “polyreactivity (PSR sort gate)” value read?
A: low polyreactivity

Q: For “QVQLQESGGGLVQACGSLRLSCAASGYIFSHQYMGWYRQAPGKERELVASISPGATTNYADSVKGRFTISRDNAKNTVYLQMNSLKPEDTAVYYYAVQTPDVIRHFYWGQGTQVTVSS”, which “polyreactivity (PSR sort gate)” value is on record?
A: high polyreactivity

Q: For “QVQRVESGGGLVQAGGSLRLSCAASGSIFSYNAMGWYRQAPGKERELVAAIRASGGDTYYADSVKGRFTISRDNAKNTVYLQMISLKPEDTAVYYCAARTYAHHYASHGYWGQGTQVTVSS”, which “polyreactivity (PSR sort gate)” value is on record?
A: low polyreactivity

Q: Which “polyreactivity (PSR sort gate)” value does the source give for “QVQLVESGGGLVQAGGSLRLSCAASGIILYGYARGWYRPAPGKESELVAAISRRGGITYYADTVKARYTISRDNAKNSVYLQMNSLKPEDTAVYYCAADINRRPSYHPDYEYWGQGTQVTVSS” here?
A: high polyreactivity

Q: With “QVQLVESGGGLVQAGGSLRLSCAASGFILDRYAMGWYRQAPGKERELVASITSGGSTNYADSVKGRFTISRDNAKNTVYLQMNSLKPEDTAVYYCAAYPWRYWNHEYNYWGQGTQVTVSS” as the sequence, how does the “polyreactivity (PSR sort gate)” value read?
A: high polyreactivity

Q: For “QVQLVESGGGLVQAGGSLRLSCAASGRTFPYYTMGWYRQAPGKERELVAAITSGGSTYYADSVKGRFTISRDNAKNTVYLQMNSLKPEDTAVYYCNKDAYYWGQGTQVTVSS”, which “polyreactivity (PSR sort gate)” value is on record?
A: low polyreactivity

Q: For “QVQLVESGGGLVQAGGSLRLSCAASGSTFYLYAMGWYRQAPGKERELVAAITYGGGSTYYADSVKGRFTISRDNAKNTVYLQMNSLKPEDTAVYYCAARWLYWPRYTSLVYTHRDSWGQGTQVTVSA”, which “polyreactivity (PSR sort gate)” value is on record?
A: low polyreactivity

Q: For “QVQLVESGGGLVQAGGSLRLSCAASGSIFVLNAMGWYRQAPGKERELVAAITNVGSTYYADSVKGRFTISRDNAKNTVYLQMNSLKPEDTAVYYCVAKGHLYSGGYEYYYWGQGTQVTVSS”, which “polyreactivity (PSR sort gate)” value is on record?
A: low polyreactivity

Q: With “QVQLVESGGGLVQAGGSLRLSCAASGSTFGVYALGWYIPAPGKERELVDRITWSGGSTYYADSVKGRFTISRDNAKNTVYLQMNSLKPEDTAVFYCAARAWWDWYSPLWYYYWGQGTQVTVSS” as the sequence, how does the “polyreactivity (PSR sort gate)” value read?
A: high polyreactivity

Q: Which “polyreactivity (PSR sort gate)” value does the source give for “QVQLVESGGGLVQAGGSLRLSCAASGSILESNVMGWYRQAPGKERELVASISSSGDSTYADSVKGRFTISRDNAKNTVYLQMNSLKPEDTEVYYCAADRWYWTYALYYWGQGTQVTVSS” here?
A: low polyreactivity

Q: With “QVQLVESGGGLVQAGGSLRLSCAASGLIFARNAMGWYRQSPGKERELVAAITRGGSTYYADSVKGRFTISRDNAKNTVYLQMNSLKPEDTAVYYCNADYAYNSYGYRFYYWGQGTQVTVSS” as the sequence, how does the “polyreactivity (PSR sort gate)” value read?
A: high polyreactivity

Q: For “QVQLVESGGGLVQAGGSLRLSCAASGRTFVPYAMGWYRQAPGKERELVAAISWSSVSTYYADSVKGRFTISRDNAKNTVYLQMNSLKPEDTAVYYCAAEYYTRVAEYYYWGQGTQVTVSS”, which “polyreactivity (PSR sort gate)” value is on record?
A: high polyreactivity

Q: With “QVQLVESGGGLVQAGGSLRLSCAASGRIFQVNAMGWYRQAPGKERELVAAITYSGGTTYYADSVKGRFTISRDNAKNNVYLQMNRLKPEYTAVYYCAAEGYGAQGDPWQYGYEYWGQGTKVTVSS” as the sequence, how does the “polyreactivity (PSR sort gate)” value read?
A: low polyreactivity

Q: Which “polyreactivity (PSR sort gate)” value does the source give for “QVQLVESGGGLVQAGGSLRLSCAASGFTFYPYTMGWYRQAPGKERELVADITYDSTYYADSVKGRFTISRDNAKNTVYLQMNSLKPEDTAVYYCNATGYSVSRSAYWYGWYDYWGQGTQVTVSS” here?
A: low polyreactivity

Q: With “QVQIVESGGGLVQAGGSLRLSCAASGRTIYYYTMGWYIQAPGKERELVAAITHGGSTYYADSVKGRFTISRDNAKNTVYLQMNSLNPEDTAVYYCNAVYDYPYEYWGQGTQVTVSS” as the sequence, how does the “polyreactivity (PSR sort gate)” value read?
A: high polyreactivity

Q: For “QVQLVESGGGLVQAGGSLRLSCAASGNIFESYGMGWYRQAPGKERELVATINTSSGSTYYADSVKGRFTISRDNAKNTVYLQMNSLKPEDTAVSSCAGEWYPYAWGYGYWGQGTQVTVSS”, which “polyreactivity (PSR sort gate)” value is on record?
A: low polyreactivity

Q: With “QVQLVESGGGLVQAGGSRRLSCAASGRIFRIYAMGWYRQAPGKERELVAAITWSGGSTYYADSVKGRFPISRDNAKNTVYLQMNSLKPEDTAVYYGAAKARSNKYNYWGQGTQVTVSS” as the sequence, how does the “polyreactivity (PSR sort gate)” value read?
A: high polyreactivity

Q: For “QVQLVESGGGLVQAGGSLRLSCAASGFTFVNYVMGWYRQAPGKERELVAAISRSGGSTYYADSVKGRFTISRDNAKNTVYLQMNSLIPEDTAVYYCAARWFYRAGFNYWGQGTQVTVSS”, which “polyreactivity (PSR sort gate)” value is on record?
A: high polyreactivity

Q: With “QVQLVESGGGLVQAGGSLRLSCAASGGTLATYAMGWYRQAPGKERELVARIRIGGSTNYADSVKGRFTISRDNAKNTVYLQMNSLKPEDTAVYYCNKYSVLSRQRYSHPVNYDSWGQGTQVTVSS” as the sequence, how does the “polyreactivity (PSR sort gate)” value read?
A: high polyreactivity
